Patent US20170319690A1 (AGENCY FOR SCIENCE TECHNOLOGY AND RESEARCH, published 2017)

How the values were obtained:
[1] = target: biotinylated murine PD-L1 (murine) (UniProt Q9EP73); assay: blocking ELISA; murine PD-L1 binding to murine PD-1 (the blocked partner) in the presence of the IgG
[2] = target: T1, human PD-L1 expressed on cells (human, UniProt Q9NZQ7 19-290); assay: flow cytometry blocking assay; antibody mixed with human PD-1-PE (the blocked partner) and added to HEK293 cells transfected with human PD-L1
T1 construct: whole, on cells; also called PD-L1 transfected HEK 293 cells; HEK293-6E cells transfected with human PD-L1
T1 sequence (Q9NZQ7 19-290): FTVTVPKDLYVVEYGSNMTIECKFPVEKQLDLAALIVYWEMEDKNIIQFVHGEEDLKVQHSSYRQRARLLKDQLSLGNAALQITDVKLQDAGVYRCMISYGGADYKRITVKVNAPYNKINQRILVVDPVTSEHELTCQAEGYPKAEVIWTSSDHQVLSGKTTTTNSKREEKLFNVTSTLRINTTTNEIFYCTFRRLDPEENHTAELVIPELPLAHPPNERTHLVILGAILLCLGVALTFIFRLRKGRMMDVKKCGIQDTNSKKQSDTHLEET
From the text: Cells were washed 3 times with PBS and all data were collected on a BD FACSCanto II (BD Bioscience) and analysed on BD FACSDiva software (BD Bioscience).

[3] = target: T2, biotinylated human PD-L1 (human, UniProt Q9NZQ7 19-239, limits assumed, biotinylated); assay: blocking ELISA; biotinylated human PD-L1 pre-incubated with the Fab, then added to plate-coated human PD-1-Fc (the blocked partner); streptavidin-HRP/TMB
T2 construct: construct not described
T2 sequence (Q9NZQ7 19-239 limits assumed): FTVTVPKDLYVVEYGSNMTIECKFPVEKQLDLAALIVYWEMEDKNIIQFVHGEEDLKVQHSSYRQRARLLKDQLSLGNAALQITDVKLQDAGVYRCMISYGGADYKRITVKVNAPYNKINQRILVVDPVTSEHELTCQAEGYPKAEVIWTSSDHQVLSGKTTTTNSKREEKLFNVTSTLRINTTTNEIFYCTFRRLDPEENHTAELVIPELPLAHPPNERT

[4] = target: T2, biotinylated human PD-L1; assay: ELISA; antibody coated on the plate at 2 ug/mL, biotinylated human PD-L1 titrated (x axis: Human PD-L1, nM), streptavidin-HRP/TMB
Method: Binding was measured by ELISA. Antibodies were coated onto maxisorp plates at 2 μg/mL in coating buffer and incubated overnight at 4° C. The next day, plates were washed with wash buffer (PBS+0.05% Tween-20), and blocker with casein for 1 hour, at room temperature. Plates were then washed again using wash buffer. […] Plates were then washed again using wash buffer. […] Plates were then washed again using wash buffer. Finally, TMB was added to develop the ELISA; TMB conversion by HRP was stopped using 1M H—Cl.

[5] = target: T2, biotinylated human PD-L1; assay: avidity ELISA; biotinylated human PD-L1 (0.2 ug/mL) captured on a neutravidin plate, IgG titrated, anti-human Fc-HRP/TMB
Method: Neutravidin was coated onto maxisorp plates at 2 μg/mL in coating buffer and incubated overnight at 4° C. The next day, plates were washed with wash buffer (PBS+0.05% Tween-20), and blocker with casein for 1 hour, at room temperature. Plates were then washed again using wash buffer. […] Plates were then washed again using wash buffer. The different antibodies were then added at various concentrations, and incubated for 1 hour at room temperature. Plates were then washed again using wash buffer. Anti-human Fc-HRP was then added and incubated for 1 hour at room temperature. Plates were then washed again using wash buffer. Finally, TMB was added to develop the ELISA; TMB conversion by HRP was stopped using 1M H—Cl.

Sequence of biotinylated murine PD-L1 (murine) (Q9EP73 19-238 limits assumed): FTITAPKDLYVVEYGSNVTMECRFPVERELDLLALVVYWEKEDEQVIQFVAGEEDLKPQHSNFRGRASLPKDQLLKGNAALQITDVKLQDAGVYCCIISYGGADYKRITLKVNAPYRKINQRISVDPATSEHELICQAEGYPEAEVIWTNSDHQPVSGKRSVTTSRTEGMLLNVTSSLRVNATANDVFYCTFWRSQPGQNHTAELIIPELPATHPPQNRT

commercially available anti-murine PD-L1 IgG antibody 10F.9G2 (BioLegend)
IC50 (read off the curve) [1]: 10 nM

B1: anti-PD-L1 antibody H12, IgG1 format (antibody, V domains shown)
VH: EVQLVQSGAEVKKPGASVKVSCKASGGTFSSYAISWVRQAPGQGLEWMGRIIPILGIANYAQKFQGRVTITADKSTSTAYMELSSLRSEDTAVYYCARSGHGYSYGAFDYWGQGTL
VL: QSVLTQPPSVSGAPGQRVTISCTGSSSNIGAGYDVHWYQQLPGTAPKLLIYGNSNRPSGVPDRFSGSKSGTSASLAITGLQAEDEADYYCQSYDSSLSGSYVVFGGGTKLTVL
notes: IgG1
IC50 (read off the curve) [2]: ~9 nM

B2: anti-PD-L1 antibody H12, IgG4 format (antibody, V domains shown)
VH: EVQLVQSGAEVKKPGASVKVSCKASGGTFSSYAISWVRQAPGQGLEWMGRIIPILGIANYAQKFQGRVTITADKSTSTAYMELSSLRSEDTAVYYCARSGHGYSYGAFDYWGQGTL
VL: QSVLTQPPSVSGAPGQRVTISCTGSSSNIGAGYDVHWYQQLPGTAPKLLIYGNSNRPSGVPDRFSGSKSGTSASLAITGLQAEDEADYYCQSYDSSLSGSYVVFGGGTKLTVL
notes: IgG4
IC50 (read off the curve) [2]: ~9 nM

B3: anti-PD-L1 antibody clone A1, Fab format (Fab, V domains shown)
VH: QVQLQQSGAEVKKPGSSVKVSCKASGGTFSSYAISWVRQAPGQGLEWMGRIIPILGIANYAQKFQGRVTITADKSTSTAYMELSSLRSEDTAVYYCARGGSYGSLYAFDIWGQGTMVTVSS
VL: QSVLTQPPSVSAAPGQRVSISCSGRSSNIASHDVFWYQQLPGTAPKIVMYETNKRPWGIPDRFSGSKSGTSATLDIAGLQTGDEADYYCGAWDSGLTGMLFGGGTKVTVL
notes: Human Fab from a phage display library
IC50 (read off the curve) [3]: ~50 nM

B4: anti-PD-L1 antibody H12_GL, IgG1 format (antibody, V domains shown)
VH: QVQLVQSGAEVKKPGSSVKVSCKASGGTFSSYAISWVRQAPGQGLEWMGRIIPILGIANYAQKFQGRVTITADKSTSTAYMELSSLRSEDTAVYYCARSGHGYSYGAFDYWGQGTLVTVSS
VL: QSVLTQPPSVSGAPGQRVTISCTGSSSNIGAGYDVHWYQQLPGTAPKLLIYGNSNRPSGVPDRFSGSKSGTSASLAITGLQAEDEADYYCQSYDSSLSGSYVVFGGGTKLTVL
notes: IgG1
IC50 (read off the curve) [2]: ~7 nM

B5: anti-PD-L1 antibody H12_GL, IgG4 format (antibody, V domains shown)
VH: QVQLVQSGAEVKKPGSSVKVSCKASGGTFSSYAISWVRQAPGQGLEWMGRIIPILGIANYAQKFQGRVTITADKSTSTAYMELSSLRSEDTAVYYCARSGHGYSYGAFDYWGQGTLVTVSS
VL: QSVLTQPPSVSGAPGQRVTISCTGSSSNIGAGYDVHWYQQLPGTAPKLLIYGNSNRPSGVPDRFSGSKSGTSASLAITGLQAEDEADYYCQSYDSSLSGSYVVFGGGTKLTVL
notes: IgG4
IC50 (read off the curve) [2]: ~7 nM

B6: anti-PD-L1 antibody clone C2, Fab format (Fab, V domains shown)
VH: QVQLQQSGAEVKKPGSSVKVSCKASGGTFSSYAISWVRQAPGQGLEWMGRIIPILGIANYAQKFQGRVTITADKSTSTAYMELSSLRSEDTAVYYCARGGSYGSLYAFDIWGQGTTVTVSS
VL: SYELTQPPSVSVAPGKTTRITCGGDNIGRKSVHWYQQRPGQAPLLLVYDDGDRPSGIPDRFSGSNSGNTATLTISGTQAMDEADYYCQAWDSTVVFGGGTRLTVL
notes: as for B3
IC50 (read off the curve) [3]: ~40 nM

B7: anti-PD-L1 antibody C4 (format not stated in the example) (antibody, V domains shown)
VH: QVQLQQSGAEVKKPGSSVKVSCKASGGTFSSYAISWVRQAPGQGLEWMGRIIPILGIANYAQKFQGRVTITADKSTSTAYMELSSLRSEDTAVYYCARGGYGGNSLYAFDIWGQGTMVTVSS
VL: QSVVTQPPSVSAAPGQKVTISCSGSSSNIGNNYVSWYQQLPGTAPKLLIYDNNERLSGIPDRFSGSKSGTSATLGISGLQTGDEADYYCGTWDSSLSVVVFGGGTKLTVL
notes: detected with anti-human Fc-HRP in the avidity ELISA, so it carried an Fc there
EC50 (read off the curve) [4]: ~0.9 nM
EC50 (read off the curve) [5]: ~0.9 nM
